Consider one protein from publication PMC3439888 (Nucleic Acids Research, 2012).

The series deals with the molecule itself. The series is described as follows: SEC.

B1: Lac repressor (natural protein)
chain: MKPVTLYDVAEYAGVSYQTVSRVVNQASHVSAKTREKVEAAMAELNYIPNRVAQQLAGKQSLLIGVATSSLALHAPSQIVAAIKSRADQLGASVVVSMVERSGVEACKAAVHNLLAQRVSGLIINYPLDDQDAIAVEAACTNVPALFLDVSDQTPINSIIFSHEDGTRLGVEHLVALGHQQIALLAGPLSSVSARLRLAGWHKYLTRNQIQPIAEREGDWSAMSGFQQTMQMLNEGIVPTAMLVANDQMALGAMRAITESGLRVGADISVVGYDDTEDSSCYIPPLTTIKQDFRLLGQTSVDRLLQLSQGQAVKGNQLLPVSLVKRKTTLAPNTQTASPRALADSLMQLARQVSRLESGQ
As to B1, the “stoichiometry N” value was 4.
